Reference: publication PMC3146532, “Multiple ATR-Chk1 Pathway Proteins Preferentially Associate with Checkpoint-Inducing DNA Substrates”

What was measured:
[1] = target: T1, His-Chk1 (UniProt O14757 1-476); experiment: pull-down; 10 mM Tris pH 7.4, 50 mM NaCl (oligo DNA) or 100 mM NaCl (plasmid; 200/300 mM for TopBP1 salt series), 10 ug/ml BSA, 10% glycerol, 0.01% NP-40, room temperature, 30 min; bead pull-down with immunoblot; conditions: protein: recombinant, tags: His
T1 sequence: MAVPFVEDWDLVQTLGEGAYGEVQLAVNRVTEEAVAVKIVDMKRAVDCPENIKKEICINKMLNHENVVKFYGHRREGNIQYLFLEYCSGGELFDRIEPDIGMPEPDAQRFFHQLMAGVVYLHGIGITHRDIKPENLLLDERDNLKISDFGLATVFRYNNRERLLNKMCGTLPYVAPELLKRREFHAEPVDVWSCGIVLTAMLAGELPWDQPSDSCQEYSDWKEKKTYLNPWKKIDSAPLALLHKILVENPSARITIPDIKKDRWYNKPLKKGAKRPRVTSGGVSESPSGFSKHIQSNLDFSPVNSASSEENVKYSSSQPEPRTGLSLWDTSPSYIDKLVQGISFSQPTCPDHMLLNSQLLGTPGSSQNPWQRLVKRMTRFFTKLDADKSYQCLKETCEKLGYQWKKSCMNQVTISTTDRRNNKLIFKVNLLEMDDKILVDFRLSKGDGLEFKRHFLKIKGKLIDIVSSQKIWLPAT

[2] = target: T2, FAAP24-His (UniProt Q9BTP7 1-215); experiment: as above; conditions: protein: recombinant, tags: His (pET21b)
T2 sequence: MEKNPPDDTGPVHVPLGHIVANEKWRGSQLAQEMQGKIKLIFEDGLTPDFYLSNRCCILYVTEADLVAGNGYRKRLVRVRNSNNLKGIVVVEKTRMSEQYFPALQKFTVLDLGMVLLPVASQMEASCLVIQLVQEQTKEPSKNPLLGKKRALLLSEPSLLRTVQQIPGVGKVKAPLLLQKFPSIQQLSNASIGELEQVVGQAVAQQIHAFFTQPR

[3] = target: RPA (heterotrimer) (UniProt P27694;P15927;P35244 1-616;1-270;1-121); experiment: pull-down; up to 10-fold more than dsDNA; 10 mM Tris pH 7.4, 50 mM NaCl (oligo DNA) or 100 mM NaCl (plasmid; 200/300 mM for TopBP1 salt series), 10 ug/ml BSA, 10% glycerol, 0.01% NP-40, room temperature, 30 min; bead pull-down with immunoblot; conditions: protein: recombinant, copies: 1;1;1
[4] = target: T3, FLAG-ATRIP (UniProt Q8WXE1 1-791); experiment: pull-down; without RPA; 10 mM Tris pH 7.4, 50 mM NaCl (oligo DNA) or 100 mM NaCl (plasmid; 200/300 mM for TopBP1 salt series), 10 ug/ml BSA, 10% glycerol, 0.01% NP-40, room temperature, 30 min; bead pull-down with immunoblot; conditions: protein: recombinant; tags: FLAG; label: 5'-biotin on Oligo1; fork 1:2; 31 bp duplex, two 19 nt unpaired arms (3' of Oligo1, 5' of Oligo2)
T3 sequence: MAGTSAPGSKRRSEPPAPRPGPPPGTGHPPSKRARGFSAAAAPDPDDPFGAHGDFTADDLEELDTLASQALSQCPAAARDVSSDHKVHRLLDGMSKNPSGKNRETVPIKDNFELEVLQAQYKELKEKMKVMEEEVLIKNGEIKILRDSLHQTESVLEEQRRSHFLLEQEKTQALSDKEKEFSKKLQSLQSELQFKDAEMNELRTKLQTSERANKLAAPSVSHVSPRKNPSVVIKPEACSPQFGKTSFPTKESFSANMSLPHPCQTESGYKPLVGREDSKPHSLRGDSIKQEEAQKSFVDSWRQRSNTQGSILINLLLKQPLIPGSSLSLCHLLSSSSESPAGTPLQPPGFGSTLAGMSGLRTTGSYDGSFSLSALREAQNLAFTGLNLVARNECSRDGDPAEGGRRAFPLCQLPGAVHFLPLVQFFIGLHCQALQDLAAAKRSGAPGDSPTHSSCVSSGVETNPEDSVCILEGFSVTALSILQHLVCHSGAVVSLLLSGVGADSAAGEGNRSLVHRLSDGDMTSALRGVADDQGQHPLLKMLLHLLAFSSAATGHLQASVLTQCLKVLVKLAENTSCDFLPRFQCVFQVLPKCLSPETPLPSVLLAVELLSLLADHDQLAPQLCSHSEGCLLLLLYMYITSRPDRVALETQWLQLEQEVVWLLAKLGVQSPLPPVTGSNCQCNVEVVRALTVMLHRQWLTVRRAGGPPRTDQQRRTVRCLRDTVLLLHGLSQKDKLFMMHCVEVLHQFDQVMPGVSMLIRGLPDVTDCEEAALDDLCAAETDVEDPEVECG

[5] = target: FLAG-Timeless;Tipin-His (human?;human?, UniProt Q9UNS1;Q9BVW5 1-1208;1-301, |); experiment: pull-down; 10 mM Tris pH 7.4, 50 mM NaCl (oligo DNA) or 100 mM NaCl (plasmid; 200/300 mM for TopBP1 salt series), 10 ug/ml BSA, 10% glycerol, 0.01% NP-40, room temperature, 30 min; bead pull-down with immunoblot; conditions: protein: recombinant;recombinant; tags: FLAG;His; copies: 1;1; label: 5'-biotin on Oligo1; fork 1:2; 31 bp duplex, two 19 nt unpaired arms (3' of Oligo1, 5' of Oligo2)
[6] = target: MBP-XPA (UniProt P23025 1-273); experiment: as above; conditions: protein: recombinant; tags: MBP; label: 5'-biotin on Oligo1; fork 1:2; 31 bp duplex, two 19 nt unpaired arms (3' of Oligo1, 5' of Oligo2)
[7] = target: T4, 9-1-1 complex (FLAG-Rad9-Hus1-Rad1) (UniProt Q99638;O60921;O60671 1-391;1-280;1-282); experiment: as above; conditions: protein: recombinant; tags: FLAG on Rad9; copies: 1;1;1; label: 5'-biotin on Oligo1; fork 1:2; 31 bp duplex, two 19 nt unpaired arms (3' of Oligo1, 5' of Oligo2)
T4 sequence 1: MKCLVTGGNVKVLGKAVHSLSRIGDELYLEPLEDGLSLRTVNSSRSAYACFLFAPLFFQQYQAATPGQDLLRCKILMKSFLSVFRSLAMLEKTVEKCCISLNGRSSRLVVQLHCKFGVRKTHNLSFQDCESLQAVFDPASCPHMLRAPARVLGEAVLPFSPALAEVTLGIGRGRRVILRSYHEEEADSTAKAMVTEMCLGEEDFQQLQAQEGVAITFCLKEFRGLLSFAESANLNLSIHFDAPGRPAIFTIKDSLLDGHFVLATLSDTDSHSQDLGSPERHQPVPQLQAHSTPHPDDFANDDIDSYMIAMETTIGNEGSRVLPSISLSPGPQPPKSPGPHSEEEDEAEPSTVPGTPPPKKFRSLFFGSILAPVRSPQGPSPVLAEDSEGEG
T4 sequence 2: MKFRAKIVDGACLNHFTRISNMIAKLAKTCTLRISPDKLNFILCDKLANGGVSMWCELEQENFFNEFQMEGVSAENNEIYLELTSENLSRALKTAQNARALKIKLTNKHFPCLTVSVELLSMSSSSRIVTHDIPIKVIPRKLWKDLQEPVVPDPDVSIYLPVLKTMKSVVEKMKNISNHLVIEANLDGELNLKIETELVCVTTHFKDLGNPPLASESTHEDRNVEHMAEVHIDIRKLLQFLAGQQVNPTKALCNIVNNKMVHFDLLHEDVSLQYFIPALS
T4 sequence 3: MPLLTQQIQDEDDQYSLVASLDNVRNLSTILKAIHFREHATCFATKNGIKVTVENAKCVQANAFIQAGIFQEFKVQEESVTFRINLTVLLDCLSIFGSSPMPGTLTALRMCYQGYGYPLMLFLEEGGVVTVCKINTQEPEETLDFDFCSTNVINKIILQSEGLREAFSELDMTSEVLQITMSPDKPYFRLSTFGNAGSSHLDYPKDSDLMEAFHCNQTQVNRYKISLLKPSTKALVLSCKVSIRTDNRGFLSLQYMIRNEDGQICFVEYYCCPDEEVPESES

[8] = target: FLAG-Timeless (UniProt Q9UNS1 1-1208); experiment: as above; conditions: protein: recombinant; tags: FLAG; label: 5'-biotin on Oligo1; fork 1:2; 31 bp duplex, two 19 nt unpaired arms (3' of Oligo1, 5' of Oligo2)
[9] = target: FLAG-Claspin (UniProt Q9HAW4 1-1339); experiment: as above; conditions: protein: recombinant; tags: FLAG; label: 5'-biotin on Oligo1; fork 1:2; 31 bp duplex, two 19 nt unpaired arms (3' of Oligo1, 5' of Oligo2)
[10] = target: T5, Tipin-His (UniProt Q9BVW5 1-301); experiment: pull-down; >10-fold over ssDNA or dsDNA at highest protein; 10 mM Tris pH 7.4, 50 mM NaCl (oligo DNA) or 100 mM NaCl (plasmid; 200/300 mM for TopBP1 salt series), 10 ug/ml BSA, 10% glycerol, 0.01% NP-40, room temperature, 30 min; bead pull-down with immunoblot; conditions: protein: recombinant; tags: His; label: 5'-biotin on Oligo1; fork 1:2; 31 bp duplex, two 19 nt unpaired arms (3' of Oligo1, 5' of Oligo2)
T5 sequence: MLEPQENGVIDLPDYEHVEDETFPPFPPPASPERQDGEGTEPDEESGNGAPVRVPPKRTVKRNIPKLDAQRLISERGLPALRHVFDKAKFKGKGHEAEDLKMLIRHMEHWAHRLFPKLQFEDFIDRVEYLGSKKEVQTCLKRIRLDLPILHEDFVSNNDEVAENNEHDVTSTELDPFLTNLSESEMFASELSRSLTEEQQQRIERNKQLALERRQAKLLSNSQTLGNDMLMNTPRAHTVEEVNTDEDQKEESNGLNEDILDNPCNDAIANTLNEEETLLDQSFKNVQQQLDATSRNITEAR

[11] = label: 5'-biotin on Oligo1, fork 1:2, 31 bp duplex, two 19 nt unpaired arms (3' of Oligo1, 5' of Oligo2)

Measured: binding result

Chain of RPA (heterotrimer) (P27694 whole entry, chain 1 of 3): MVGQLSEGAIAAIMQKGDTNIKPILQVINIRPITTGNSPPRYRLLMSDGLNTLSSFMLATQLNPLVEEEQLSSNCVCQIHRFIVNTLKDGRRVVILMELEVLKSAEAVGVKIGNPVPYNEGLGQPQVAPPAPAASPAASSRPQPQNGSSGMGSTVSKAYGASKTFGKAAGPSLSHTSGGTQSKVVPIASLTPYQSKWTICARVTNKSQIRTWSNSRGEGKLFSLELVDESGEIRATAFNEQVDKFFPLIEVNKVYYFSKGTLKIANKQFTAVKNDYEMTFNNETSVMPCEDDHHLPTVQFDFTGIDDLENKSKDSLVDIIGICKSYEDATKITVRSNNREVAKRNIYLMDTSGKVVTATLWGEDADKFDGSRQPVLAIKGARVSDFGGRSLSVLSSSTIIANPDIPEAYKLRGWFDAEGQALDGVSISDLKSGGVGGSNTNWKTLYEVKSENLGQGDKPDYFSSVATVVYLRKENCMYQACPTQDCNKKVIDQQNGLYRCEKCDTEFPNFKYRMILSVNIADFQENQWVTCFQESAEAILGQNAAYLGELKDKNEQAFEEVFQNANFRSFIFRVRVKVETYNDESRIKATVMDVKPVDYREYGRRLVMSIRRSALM
Chain of RPA (heterotrimer) (P15927 whole entry, chain 2 of 3): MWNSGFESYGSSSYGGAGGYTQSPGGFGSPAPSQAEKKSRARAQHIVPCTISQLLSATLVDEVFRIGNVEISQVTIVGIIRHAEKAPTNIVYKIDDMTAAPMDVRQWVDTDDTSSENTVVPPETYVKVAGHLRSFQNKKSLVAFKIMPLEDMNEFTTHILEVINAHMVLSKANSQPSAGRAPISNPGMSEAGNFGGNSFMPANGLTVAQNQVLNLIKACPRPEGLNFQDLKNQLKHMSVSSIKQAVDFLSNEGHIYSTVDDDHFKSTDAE
Chain of RPA (heterotrimer) (P35244 whole entry, chain 3 of 3): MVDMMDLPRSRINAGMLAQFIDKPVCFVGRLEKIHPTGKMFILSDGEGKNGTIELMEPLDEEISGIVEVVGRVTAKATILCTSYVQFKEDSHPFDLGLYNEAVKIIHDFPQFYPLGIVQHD
Chain of FLAG-Claspin (Q9HAW4 whole entry): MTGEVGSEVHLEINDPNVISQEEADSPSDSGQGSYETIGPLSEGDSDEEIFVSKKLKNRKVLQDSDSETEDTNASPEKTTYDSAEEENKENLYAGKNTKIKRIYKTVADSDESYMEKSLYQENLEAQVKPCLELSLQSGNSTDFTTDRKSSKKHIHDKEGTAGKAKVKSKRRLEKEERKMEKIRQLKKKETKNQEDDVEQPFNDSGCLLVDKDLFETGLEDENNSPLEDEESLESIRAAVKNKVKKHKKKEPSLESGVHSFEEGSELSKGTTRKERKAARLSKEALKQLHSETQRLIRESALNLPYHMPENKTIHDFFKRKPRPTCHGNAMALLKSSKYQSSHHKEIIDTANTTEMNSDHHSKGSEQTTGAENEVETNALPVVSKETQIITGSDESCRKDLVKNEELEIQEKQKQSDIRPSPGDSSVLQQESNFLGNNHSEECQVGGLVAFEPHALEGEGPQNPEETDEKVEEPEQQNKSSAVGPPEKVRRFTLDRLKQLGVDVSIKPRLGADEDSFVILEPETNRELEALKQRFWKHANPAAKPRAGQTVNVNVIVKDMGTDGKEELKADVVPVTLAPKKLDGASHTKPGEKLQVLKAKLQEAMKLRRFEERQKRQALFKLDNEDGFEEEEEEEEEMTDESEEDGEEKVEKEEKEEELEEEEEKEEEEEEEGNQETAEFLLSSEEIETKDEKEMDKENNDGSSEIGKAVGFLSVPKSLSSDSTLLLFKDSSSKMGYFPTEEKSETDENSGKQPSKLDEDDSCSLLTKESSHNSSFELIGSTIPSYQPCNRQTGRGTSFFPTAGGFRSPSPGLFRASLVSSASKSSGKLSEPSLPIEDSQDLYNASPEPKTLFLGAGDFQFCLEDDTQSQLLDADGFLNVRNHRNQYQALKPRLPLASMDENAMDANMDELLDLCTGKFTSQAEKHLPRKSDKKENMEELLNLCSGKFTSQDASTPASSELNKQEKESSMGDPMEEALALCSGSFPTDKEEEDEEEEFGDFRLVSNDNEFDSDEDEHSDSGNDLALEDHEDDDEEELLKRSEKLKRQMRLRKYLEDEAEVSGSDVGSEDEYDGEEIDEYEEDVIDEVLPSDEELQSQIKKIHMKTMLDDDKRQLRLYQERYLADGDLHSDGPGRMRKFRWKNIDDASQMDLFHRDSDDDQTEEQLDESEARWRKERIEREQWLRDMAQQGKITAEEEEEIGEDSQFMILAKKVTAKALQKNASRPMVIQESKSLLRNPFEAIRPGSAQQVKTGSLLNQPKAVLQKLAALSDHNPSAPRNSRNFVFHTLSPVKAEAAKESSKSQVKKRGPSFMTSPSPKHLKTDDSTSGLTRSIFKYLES
Chain of MBP-XPA (P23025 whole entry): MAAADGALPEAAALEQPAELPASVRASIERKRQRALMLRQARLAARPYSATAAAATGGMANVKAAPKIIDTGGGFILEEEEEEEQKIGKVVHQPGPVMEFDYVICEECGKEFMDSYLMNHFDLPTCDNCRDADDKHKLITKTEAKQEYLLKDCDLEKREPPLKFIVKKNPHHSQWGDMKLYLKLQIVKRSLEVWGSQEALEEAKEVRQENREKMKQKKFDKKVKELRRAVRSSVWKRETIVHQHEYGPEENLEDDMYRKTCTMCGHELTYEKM
Chain of FLAG-Timeless (Q9UNS1 whole entry): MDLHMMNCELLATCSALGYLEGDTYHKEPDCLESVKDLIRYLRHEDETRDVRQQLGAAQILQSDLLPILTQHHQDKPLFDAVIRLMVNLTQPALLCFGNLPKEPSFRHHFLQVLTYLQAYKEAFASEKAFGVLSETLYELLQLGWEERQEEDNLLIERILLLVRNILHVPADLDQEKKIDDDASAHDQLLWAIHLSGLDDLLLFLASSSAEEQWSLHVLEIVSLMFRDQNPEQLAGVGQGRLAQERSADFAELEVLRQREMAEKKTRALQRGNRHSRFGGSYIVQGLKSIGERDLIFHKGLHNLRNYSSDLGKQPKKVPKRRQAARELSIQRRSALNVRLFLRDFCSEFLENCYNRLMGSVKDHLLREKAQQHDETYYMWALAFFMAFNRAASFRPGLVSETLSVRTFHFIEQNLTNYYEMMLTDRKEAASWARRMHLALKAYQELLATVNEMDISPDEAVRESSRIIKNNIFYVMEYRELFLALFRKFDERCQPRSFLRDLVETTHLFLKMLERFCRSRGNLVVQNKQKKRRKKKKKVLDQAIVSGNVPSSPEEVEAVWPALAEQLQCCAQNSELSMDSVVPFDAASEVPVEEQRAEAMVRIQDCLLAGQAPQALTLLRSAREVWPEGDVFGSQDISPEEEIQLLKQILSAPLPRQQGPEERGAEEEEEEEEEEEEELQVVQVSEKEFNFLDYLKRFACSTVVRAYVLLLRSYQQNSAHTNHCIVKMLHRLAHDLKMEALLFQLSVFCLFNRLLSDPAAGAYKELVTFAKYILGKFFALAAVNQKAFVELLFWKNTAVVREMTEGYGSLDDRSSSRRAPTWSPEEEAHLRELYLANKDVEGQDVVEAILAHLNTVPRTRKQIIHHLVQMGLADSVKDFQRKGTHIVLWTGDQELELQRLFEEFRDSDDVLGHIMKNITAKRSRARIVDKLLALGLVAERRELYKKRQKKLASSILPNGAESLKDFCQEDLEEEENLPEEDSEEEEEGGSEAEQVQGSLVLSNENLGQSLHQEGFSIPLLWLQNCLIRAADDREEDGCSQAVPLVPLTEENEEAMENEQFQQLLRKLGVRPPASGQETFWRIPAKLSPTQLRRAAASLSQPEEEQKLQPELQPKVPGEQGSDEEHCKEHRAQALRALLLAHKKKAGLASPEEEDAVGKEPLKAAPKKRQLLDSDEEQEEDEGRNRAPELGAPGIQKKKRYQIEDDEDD
Chain of FLAG-Timeless;Tipin-His (Q9UNS1 whole entry, one chain of several): as the sequence (Q9UNS1 whole entry) above

GACGCTGCCGAATTCTGGCTTGCTAGGACATCTTTGCCCACGTTGACCCG (ssDNA) [ssDNA 50-mer (Oligo1)]
binds: [1]; label: 5'-biotin | [2]; label: 5'-biotin | [3]; label: 5'-biotin

B1: fork DNA (Oligo1/Oligo2) (mixed)
DNA 1: GACGCTGCCGAATTCTGGCTTGCTAGGACATCTTTGCCCACGTTGACCCG
DNA 2: GCGATAGTCTCTAGACAGCATGTCCTAGCAAGCCAGAATTCGGCAGCGTC
binds: [4] | [5] | [6] | [1]; [11] | [7] | [8] | [9] | [2]; [11] | [10] | [3]; [11]
